{"source": "patent US20240167012", "key": {"[1]": {"tested_on": "T1, aspartic protease Rhodotorulapepsin", "T1 sequence": "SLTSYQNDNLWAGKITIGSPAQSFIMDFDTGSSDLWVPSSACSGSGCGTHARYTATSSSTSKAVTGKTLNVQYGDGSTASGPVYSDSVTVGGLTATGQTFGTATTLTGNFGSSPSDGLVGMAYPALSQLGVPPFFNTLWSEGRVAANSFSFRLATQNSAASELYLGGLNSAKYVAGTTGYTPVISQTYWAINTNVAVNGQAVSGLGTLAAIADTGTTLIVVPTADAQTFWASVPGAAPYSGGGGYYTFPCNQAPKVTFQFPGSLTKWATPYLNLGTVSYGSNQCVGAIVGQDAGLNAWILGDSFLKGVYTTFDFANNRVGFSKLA"}, "[2]": {"tested_on": "T2, gluten immunogenic peptide 26-mer from γ-gliadin", "T2 sequence": "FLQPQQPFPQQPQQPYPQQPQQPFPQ"}, "[3]": {"tested_on": "gliadin"}, "[4]": {"tested_on": "T3, gluten immunogenic peptide 33-mer from α-gliadin", "T3 sequence": "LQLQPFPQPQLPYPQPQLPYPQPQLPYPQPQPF"}}, "data": [{"substance": "pepsin", "values": [{"measurement": "resistance of the protease to pepsin hydrolysis, inferred from gliadin hydrolysis in the presence of pepsin", "setting": "[1]", "result": "the aspartic protease Rhodotorulapepsin is resistant to pepsin hydrolysis"}, {"measurement": "hydrolysis of the 26-mer, RP-HPLC (pH 3.0 and pH 5.0)", "setting": "[2]", "result": "gluten immunogenic peptides 26-mer and 33-mer were not degraded after the same reaction time"}, {"measurement": "hydrolysis of gliadin 7.5 mg/ml, SDS-PAGE (pH 3.0, 3 h)", "setting": "[3]", "result": "when only 250 µg/ml of pepsin was included in the enzyme mixture, gliadin was not completely hydrolyzed"}, {"measurement": "hydrolysis of gliadin, SDS-PAGE of residual gliadin (pH 3.0, 37° C., enzyme:gliadin 1:500)", "setting": "[3]", "result": "gliadin was not hydrolyzed by pepsin even after 150 minutes of reaction"}, {"measurement": "relative activity to hydrolyze gliadin, ELISA of residual gliadin (pH 2.5, 1.5 h, pepsin 1 mg/ml)", "setting": "[3]", "result": "the relative activity of the simulated gastric acid environment to hydrolyze gliadin is 13%"}, {"measurement": "hydrolysis of the 33-mer, RP-HPLC (pH 3.0 and pH 5.0)", "setting": "[4]", "result": "gluten immunogenic peptides 26-mer and 33-mer were not degraded after the same reaction time"}]}]}
